# Results as given in paper PMC7118173 (Nature Communications, 2020).
# B1: M. tuberculosis SepFΔML (domain or fragment)
# chain: EDGHPLSKITTLRPKDYSEARTIGERFRDGSPVIMDLVSMDNADAKRLVDFAAGLAFALRGSFDKVATKVFLLSPADVDVSPEERRRIAETGFYAYQ
# notes: also called MtbSepFΔML
# Biological target: the molecule itself
# Experiment: negative stain electron microscopy; MtbSepFΔML 50 µM in 50 mM HEPES pH 7.4, 300 mM KCl, 10 mM MgCl2
protein,measurement,value
B1,binding result,binds
